# Data taken from patent US20160108093A1 (WISCONSIN ALUMNI RESEARCH FOUNDATION, published 2016).
# Where no end group is shown, it is not given here. [ ]: non-standard residue; d: D form.
# Columns and labels:
# [1] = target: Aβ (1-42) (UniProt P05067 672-713); experiment: cell-based or functional assay
# [2] = target: the molecule itself; experiment: self-association: PICUP cross-linking of the peptide alone at 36 µM, gel, silver staining
# Experimental: Peptides were also cross-linked by PICUP and analyzed for self-association. […] Cross-linked samples were then heated at 95° C. for 5 min and separated on a 10-20% Tris-Tricine gradient gel. Peptides were visualized by silver staining (SilverStain Kit, Pierce, Rockford, Ill.).
# Peptide self-assembly was probed by photo-induced crosslinking (PICUP) followed by gel electrophoresis.
Binder,"Aβ toxicity, MTS assay with primary mouse neuronal cultures (10 µM Aβ) [1] [µM]",binding result [2]
cyclo(SKV[dP]PTIAALLSPYSYSQ) (SMILES CC[C@H](C)[C@@H]1NC(=O)[C@H]([C@@H](C)O)NC(=O)[C@@H]2CCCN2C(=O)[C@H]2CCCN2C(=O)[C@H](C(C)C)NC(=O)[C@H](CCCCN)NC(=O)[C@H](CO)NC(=O)[C@H](CCC(N)=O)NC(=O)[C@H](CO)NC(=O)[C@H](Cc2ccc(O)cc2)NC(=O)[C@H](CO)NC(=O)[C@H](Cc2ccc(O)cc2)NC(=O)[C@@H]2CCCN2C(=O)[C@H](CO)NC(=O)[C@H](CC(C)C)NC(=O)[C@H](CC(C)C)NC(=O)[C@H](C)NC(=O)[C@H](C)NC1=O) [CG2],10,
Ac-PRRYTIAALLSPYSWS-NH2 (also called 16-mer linear peptide) [G16],,binds
cyclo(SKVVT[dP]PRYTIAALLSPYSYSQ) (SMILES CC[C@H](C)[C@@H]1NC(=O)[C@H]([C@@H](C)O)NC(=O)[C@H](Cc2ccc(O)cc2)NC(=O)[C@H](CCCNC(=N)N)NC(=O)[C@@H]2CCCN2C(=O)[C@H]2CCCN2C(=O)[C@H]([C@@H](C)O)NC(=O)[C@H](C(C)C)NC(=O)[C@H](C(C)C)NC(=O)[C@H](CCCCN)NC(=O)[C@H](CO)NC(=O)[C@H](CCC(N)=O)NC(=O)[C@H](CO)NC(=O)[C@H](Cc2ccc(O)cc2)NC(=O)[C@H](CO)NC(=O)[C@H](Cc2ccc(O)cc2)NC(=O)[C@@H]2CCCN2C(=O)[C@H](CO)NC(=O)[C@H](CC(C)C)NC(=O)[C@H](CC(C)C)NC(=O)[C@H](C)NC(=O)[C@H](C)NC1=O) [CG3],10,
SKVVT[dP]PRYTIAALLSPYSYSQ [LG3],10,
